Test results published in patent publication US20170355766A1 (Xencor, published 2017).

T1: human FcγRIIb receptor protein (R&D Systems) (human, UniProt P31994 46-217)
T1 construct: Analyte injected over antibodies captured on a protein A/G chip (Biacore); also called CD32b
T1 sequence (looked up): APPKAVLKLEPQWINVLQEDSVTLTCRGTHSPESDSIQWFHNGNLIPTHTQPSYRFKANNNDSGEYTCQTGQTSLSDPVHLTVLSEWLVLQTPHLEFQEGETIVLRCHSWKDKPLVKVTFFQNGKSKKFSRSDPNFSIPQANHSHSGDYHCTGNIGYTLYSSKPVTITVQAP


Each binder was assayed against T1, human FcγRIIb receptor protein (R&D …) (assay: SPR (Biacore)).
Procedure: Variants were screened for receptor affinity using Biacore™ technology, also referred to as Biacore herein, a surface plasmon resonance (SPR) based technology for studying biomolecular interactions in real time. SPR measurements were performed using a Biacore 3000 instrument (Biacore, Piscataway, N.J.). A protein A/G (Pierce Biotechnology) CM5 biosensor chip (Biacore) was generated using a standard primary amine coupling protocol. All measurements were performed using HBS-EP buffer (10 mM HEPES pH 7.4, 0.15 M NaCl, 3 mM EDTA, 0.005% vol/vol surfactant P20, Biacore). Antibodies at 20 nM or 50 nM in HBS-EP buffer were immobilized on the protein A/G surface and FcγRs were injected. After each cycle, the surface was regenerated by injecting glycine buffer (10 mM, pH 1.5). Data were processed by zeroing time and response before the injection of FcγR and by subtracting appropriate nonspecific signals (response of reference channel and injection of running buffer). Kinetic analyses were performed by global fitting of binding data with a 1:1 Langmuir binding model using BIAevaluation software (Biacore).

Binder	Fold FcγRIIb	binding result
A327D/L328Y/I332E (antibody, human IgG1, kappa, HuAM4G7 IgG1 Fc variant) heavy: EVQLVESGGGLVKPGGSLKLSCAASGYTFTSYVMHWVRQAPGKGLEWIGYINPYNDGTKYNEKFQGRVTISSDKSISTAYMELSSLRSEDTAMYYCARGTYYYGTRVFDYWGQGTLVTVSSASTKGPSVFPLAPSSKSTSGGTAALGCLVKDYFPEPVTVSWNSGALTSGVHTFPAVLQSSGLYSLSSVVTVPSSSLGTQTYICNVNHKPSNTKVDKKVEPKSCDKTHTCPPCPAPELLGGPSVFLFPPKPKDTLMISRTPEVTCVVVDVSHEDPEVKFNWYVDGVEVHNAKTKPREEQYNSTYRVVSVLTVLHQDWLNGKEYKCKVSNKDYPAPEEKTISKAKGQPREPQVYTLPPSREEMTKNQVSLTCLVKGFYPSDIAVEWESNGQPENNYKTTPPVLDSDGSFFLYSKLTVDKSRWQQGNVFSCSVMHEALHNHYTQKSLSLSPGK light: DIVMTQSPATLSLSPGERATLSCRSSKSLQNVNGNTYLYWFQQKPGQSPQLLIYRMSNLNSGVPDRFSGSGSGTEFTLTISSLEPEDFAVYYCMQHLEYPITFGAGTKLEIKRTVAAPSVFIFPPSDEQLKSGTASVVCLLNNFYPREAKVQWKVDNALQSGNSQESVTEQDSKDSTYSLSSTLTLSKADYEKHKVYACEVTHQGLSSPVTKSFNRGEC	2.31 fold	–
A327L (antibody, human IgG1, kappa, HuAM4G7 IgG1 Fc variant) heavy: not shown light: DIVMTQSPATLSLSPGERATLSCRSSKSLQNVNGNTYLYWFQQKPGQSPQLLIYRMSNLNSGVPDRFSGSGSGTEFTLTISSLEPEDFAVYYCMQHLEYPITFGAGTKLEIKRTVAAPSVFIFPPSDEQLKSGTASVVCLLNNFYPREAKVQWKVDNALQSGNSQESVTEQDSKDSTYSLSSTLTLSKADYEKHKVYACEVTHQGLSSPVTKSFNRGEC	–	no binding
A330D (antibody, human IgG1, kappa, HuAM4G7 IgG1 Fc variant) heavy: not shown light: DIVMTQSPATLSLSPGERATLSCRSSKSLQNVNGNTYLYWFQQKPGQSPQLLIYRMSNLNSGVPDRFSGSGSGTEFTLTISSLEPEDFAVYYCMQHLEYPITFGAGTKLEIKRTVAAPSVFIFPPSDEQLKSGTASVVCLLNNFYPREAKVQWKVDNALQSGNSQESVTEQDSKDSTYSLSSTLTLSKADYEKHKVYACEVTHQGLSSPVTKSFNRGEC	–	no binding
A330H (antibody, human IgG1, kappa, HuAM4G7 IgG1 Fc variant) heavy: not shown light: DIVMTQSPATLSLSPGERATLSCRSSKSLQNVNGNTYLYWFQQKPGQSPQLLIYRMSNLNSGVPDRFSGSGSGTEFTLTISSLEPEDFAVYYCMQHLEYPITFGAGTKLEIKRTVAAPSVFIFPPSDEQLKSGTASVVCLLNNFYPREAKVQWKVDNALQSGNSQESVTEQDSKDSTYSLSSTLTLSKADYEKHKVYACEVTHQGLSSPVTKSFNRGEC	–	no binding
A330K (antibody, human IgG1, kappa, HuAM4G7 IgG1 Fc variant) heavy: not shown light: DIVMTQSPATLSLSPGERATLSCRSSKSLQNVNGNTYLYWFQQKPGQSPQLLIYRMSNLNSGVPDRFSGSGSGTEFTLTISSLEPEDFAVYYCMQHLEYPITFGAGTKLEIKRTVAAPSVFIFPPSDEQLKSGTASVVCLLNNFYPREAKVQWKVDNALQSGNSQESVTEQDSKDSTYSLSSTLTLSKADYEKHKVYACEVTHQGLSSPVTKSFNRGEC	1.55 fold	–
A330S (antibody, human IgG1, kappa, HuAM4G7 IgG1 Fc variant) heavy: not shown light: DIVMTQSPATLSLSPGERATLSCRSSKSLQNVNGNTYLYWFQQKPGQSPQLLIYRMSNLNSGVPDRFSGSGSGTEFTLTISSLEPEDFAVYYCMQHLEYPITFGAGTKLEIKRTVAAPSVFIFPPSDEQLKSGTASVVCLLNNFYPREAKVQWKVDNALQSGNSQESVTEQDSKDSTYSLSSTLTLSKADYEKHKVYACEVTHQGLSSPVTKSFNRGEC	0.0635 fold	–
G236A/G237A (antibody, human IgG1, kappa, HuAM4G7 IgG1 Fc variant) heavy: not shown light: DIVMTQSPATLSLSPGERATLSCRSSKSLQNVNGNTYLYWFQQKPGQSPQLLIYRMSNLNSGVPDRFSGSGSGTEFTLTISSLEPEDFAVYYCMQHLEYPITFGAGTKLEIKRTVAAPSVFIFPPSDEQLKSGTASVVCLLNNFYPREAKVQWKVDNALQSGNSQESVTEQDSKDSTYSLSSTLTLSKADYEKHKVYACEVTHQGLSSPVTKSFNRGEC	0.0578 fold	–
G236D/H268D (antibody, human IgG1, kappa, HuAM4G7 IgG1 Fc variant) heavy: not shown light: DIVMTQSPATLSLSPGERATLSCRSSKSLQNVNGNTYLYWFQQKPGQSPQLLIYRMSNLNSGVPDRFSGSGSGTEFTLTISSLEPEDFAVYYCMQHLEYPITFGAGTKLEIKRTVAAPSVFIFPPSDEQLKSGTASVVCLLNNFYPREAKVQWKVDNALQSGNSQESVTEQDSKDSTYSLSSTLTLSKADYEKHKVYACEVTHQGLSSPVTKSFNRGEC	11.6 fold	–
G236I (antibody, human IgG1, kappa, HuAM4G7 IgG1 Fc variant) heavy: not shown light: DIVMTQSPATLSLSPGERATLSCRSSKSLQNVNGNTYLYWFQQKPGQSPQLLIYRMSNLNSGVPDRFSGSGSGTEFTLTISSLEPEDFAVYYCMQHLEYPITFGAGTKLEIKRTVAAPSVFIFPPSDEQLKSGTASVVCLLNNFYPREAKVQWKVDNALQSGNSQESVTEQDSKDSTYSLSSTLTLSKADYEKHKVYACEVTHQGLSSPVTKSFNRGEC	–	no binding
G236L (antibody, human IgG1, kappa, HuAM4G7 IgG1 Fc variant) heavy: not shown light: DIVMTQSPATLSLSPGERATLSCRSSKSLQNVNGNTYLYWFQQKPGQSPQLLIYRMSNLNSGVPDRFSGSGSGTEFTLTISSLEPEDFAVYYCMQHLEYPITFGAGTKLEIKRTVAAPSVFIFPPSDEQLKSGTASVVCLLNNFYPREAKVQWKVDNALQSGNSQESVTEQDSKDSTYSLSSTLTLSKADYEKHKVYACEVTHQGLSSPVTKSFNRGEC	–	no binding
G236S/G237A (antibody, human IgG1, kappa, HuAM4G7 IgG1 Fc variant) heavy: not shown light: DIVMTQSPATLSLSPGERATLSCRSSKSLQNVNGNTYLYWFQQKPGQSPQLLIYRMSNLNSGVPDRFSGSGSGTEFTLTISSLEPEDFAVYYCMQHLEYPITFGAGTKLEIKRTVAAPSVFIFPPSDEQLKSGTASVVCLLNNFYPREAKVQWKVDNALQSGNSQESVTEQDSKDSTYSLSSTLTLSKADYEKHKVYACEVTHQGLSSPVTKSFNRGEC	0.0797 fold	–
G236Y (antibody, human IgG1, kappa, HuAM4G7 IgG1 Fc variant) heavy: not shown light: DIVMTQSPATLSLSPGERATLSCRSSKSLQNVNGNTYLYWFQQKPGQSPQLLIYRMSNLNSGVPDRFSGSGSGTEFTLTISSLEPEDFAVYYCMQHLEYPITFGAGTKLEIKRTVAAPSVFIFPPSDEQLKSGTASVVCLLNNFYPREAKVQWKVDNALQSGNSQESVTEQDSKDSTYSLSSTLTLSKADYEKHKVYACEVTHQGLSSPVTKSFNRGEC	–	no binding
G237H (antibody, human IgG1, kappa, HuAM4G7 IgG1 Fc variant) heavy: not shown light: DIVMTQSPATLSLSPGERATLSCRSSKSLQNVNGNTYLYWFQQKPGQSPQLLIYRMSNLNSGVPDRFSGSGSGTEFTLTISSLEPEDFAVYYCMQHLEYPITFGAGTKLEIKRTVAAPSVFIFPPSDEQLKSGTASVVCLLNNFYPREAKVQWKVDNALQSGNSQESVTEQDSKDSTYSLSSTLTLSKADYEKHKVYACEVTHQGLSSPVTKSFNRGEC	–	no binding
G237L (antibody, human IgG1, kappa, HuAM4G7 IgG1 Fc variant) heavy: not shown light: DIVMTQSPATLSLSPGERATLSCRSSKSLQNVNGNTYLYWFQQKPGQSPQLLIYRMSNLNSGVPDRFSGSGSGTEFTLTISSLEPEDFAVYYCMQHLEYPITFGAGTKLEIKRTVAAPSVFIFPPSDEQLKSGTASVVCLLNNFYPREAKVQWKVDNALQSGNSQESVTEQDSKDSTYSLSSTLTLSKADYEKHKVYACEVTHQGLSSPVTKSFNRGEC	–	no binding
H268D/A327D (antibody, human IgG1, kappa, HuAM4G7 IgG1 Fc variant) heavy: not shown light: DIVMTQSPATLSLSPGERATLSCRSSKSLQNVNGNTYLYWFQQKPGQSPQLLIYRMSNLNSGVPDRFSGSGSGTEFTLTISSLEPEDFAVYYCMQHLEYPITFGAGTKLEIKRTVAAPSVFIFPPSDEQLKSGTASVVCLLNNFYPREAKVQWKVDNALQSGNSQESVTEQDSKDSTYSLSSTLTLSKADYEKHKVYACEVTHQGLSSPVTKSFNRGEC	7.68 fold	–
H268D/A327D/L328Y (antibody, human IgG1, kappa, HuAM4G7 IgG1 Fc variant) heavy: EVQLVESGGGLVKPGGSLKLSCAASGYTFTSYVMHWVRQAPGKGLEWIGYINPYNDGTKYNEKFQGRVTISSDKSISTAYMELSSLRSEDTAMYYCARGTYYYGTRVFDYWGQGTLVTVSSASTKGPSVFPLAPSSKSTSGGTAALGCLVKDYFPEPVTVSWNSGALTSGVHTFPAVLQSSGLYSLSSVVTVPSSSLGTQTYICNVNHKPSNTKVDKKVEPKSCDKTHTCPPCPAPELLGGPSVFLFPPKPKDTLMISRTPEVTCVVVDVSDEDPEVKFNWYVDGVEVHNAKTKPREEQYNSTYRVVSVLTVLHQDWLNGKEYKCKVSNKDYPAPIEKTISKAKGQPREPQVYTLPPSREEMTKNQVSLTCLVKGFYPSDIAVEWESNGQPENNYKTTPPVLDSDGSFFLYSKLTVDKSRWQQGNVFSCSVMHEALHNHYTQKSLSLSPGK light: DIVMTQSPATLSLSPGERATLSCRSSKSLQNVNGNTYLYWFQQKPGQSPQLLIYRMSNLNSGVPDRFSGSGSGTEFTLTISSLEPEDFAVYYCMQHLEYPITFGAGTKLEIKRTVAAPSVFIFPPSDEQLKSGTASVVCLLNNFYPREAKVQWKVDNALQSGNSQESVTEQDSKDSTYSLSSTLTLSKADYEKHKVYACEVTHQGLSSPVTKSFNRGEC	3.49 fold	–
